From patent US20090081191A1 (MICROMET, published 2009)

What was measured:
[1] = target: recombinant soluble human 17-1A-antigen (human) (UniProt P16422); assay: SPR (BIACORE 2000), s17-1A immobilized on CM5, 1. set
[2] = target: recombinant soluble human 17-1A-antigen (human) (UniProt P16422); assay: SPR (BIACORE 2000), s17-1A immobilized on CM5, 2. set
[3] = target: T1, recombinant soluble human 17-1A-antigen (human, UniProt P16422 24-265); assay: as above
T1 construct: extracellular domain; also called s17-1A; soluble 17-1A-antigen
T1 sequence (looked up): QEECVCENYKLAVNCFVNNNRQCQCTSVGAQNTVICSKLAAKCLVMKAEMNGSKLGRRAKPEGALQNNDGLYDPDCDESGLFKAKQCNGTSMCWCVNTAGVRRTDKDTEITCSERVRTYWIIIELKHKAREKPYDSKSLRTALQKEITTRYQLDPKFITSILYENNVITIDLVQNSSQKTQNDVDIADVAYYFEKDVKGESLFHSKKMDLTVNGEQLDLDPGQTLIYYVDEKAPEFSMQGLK
Experimental: Surface plasmon resonance measurement was performed using the BIACORE 2000 device (Biacore AB, Freiburg, Freiburg, Germany). Immobilization of recombinant soluble 17-1A-antigen in each flow cell and analysis of the interaction was carried out with an automatic method in BIACORE 2000. The antigen was covalently coupled to sensor chip CM5 via primary amine groups. After activation of the carboxylated dextran matrix of CM5 sensor chip with a single injection of […] of 0.1 M N-hydroxisuccinimide/0.4 M N-ethyl-N′-(3-dimethylaminopropyl)-carbodiimide (NHS/EDC9) through all four flow cells, flow cells 1,2,3 and 4 were successively included into the flow path during injection of s17-1A-antigen (60 μg/ml in 10 mM sodium acetate, pH 4.7). Different contact times of 17-1A to the activated surface lead to approximately 2500 response units (RU9 in flow cell 1, 14000 RU in flow cell 2, 780 RU in flow cell 3 and 290 RU in flow cell 4). Excess activated esters were blocked by injection of 85 μl 1 M ethanolamine pH 5 over all four flow cells. Binding experiments were performed at 25° C. in buffer of pH 7.4 containing 10 mM Hepes, 150 mM NaCl, 3 mM EDTA and 0.005% surfactant P20. The binding kinetics of antibodies to immobilized recombinant 17-1A were determined by injecting antibody concentrations ranging from 0.5 to […]. The sensor chip was regenerated between each run with 100 mM Glycin, 500 mM NaCl, 0.005% Tween pH3. The association and dissociation rate constants, Kon and Koff were analysed using BIA-evaluation software from Biacore AB as described (Karlsson, (1991) J Immunol Meth 145: 229-240).
Two sets of affinity determinations were carried out (1. set: M79, H79, D7.2, Panorex; 2. set: Panorex, HD70); the murine Panorex was also included in set 2 as internal reference.

B1: murine Panorex (antibody, INN chains, looked up, V domains shown)
VH: QVQLQQSGAELVRPGTSVKVSCKASGYAFTNYLIEWVKQRPGQGLEWIGVINPGSGGTNYNEKFKGKATLTADKSSSTAYMQLSSLTSDDSAVYFCARDGPWFAYWGQGTLVTVSA
VL: NIVMTQSPKSMSMSVGERVTLTCKASENVVTYVSWYQQKPEQSPKLLIYGASNRYTGVPDRFTGSGSATDFTLTISSVQAEDLADYHCGQGYSYPYTFGGGTKLEIK
**Q.** How did the Kd [1] turn out when B1 was run?
**A.** 200 nM

**Q.** And the koff [1]?
**A.** 0.022 s⁻¹

**Q.** What about the kon [1] of the same binder?
**A.** 110000 M⁻¹ s⁻¹

**Q.** What about the Kd [2] of the same binder?
**A.** 270 nM

**Q.** And the koff [2]?
**A.** 0.027 s⁻¹

**Q.** What about the kon [2] of the same binder?
**A.** 100000 M⁻¹ s⁻¹

B2: HD70 (VD4.5huIgG1-k5.1) (antibody, V domains shown)
VH: EVQLLESGGGVVQPGRSLRLSCAASGFTFSSYGMHWVRQAPGKGLEWVAVISYDGSNKYYADSVKGRFTISRDNSKNTLYLQMNSLRAEDTAVYYCAKDMGWGSGWRPYYYYGMDVWGQGTTVTVSS
VL: ELQMTQSPSSLSASVGDRVTITCRASQSISSYLNWYQQKPGQPPKLLIYWASTRESGVPDRFSGSESGTNYTLTISSLQPEDFATYFCQQSDSLPITFGQGTRLDIQ
notes: Complete human IgG1 antibody produced in CHO cells; also called human HD70; not shown: human IgG1 heavy chain constant region
**Q.** B2 was tested. Which Kd [3] did it give?
**A.** 390 nM

**Q.** And the koff [3]?
**A.** 0.035 s⁻¹

**Q.** What about the kon [3] of the same binder?
**A.** 90000 M⁻¹ s⁻¹
